T1: DLG3_1, Q92796
T1 sequence (Q92796 125-227, limits assumed, looked up): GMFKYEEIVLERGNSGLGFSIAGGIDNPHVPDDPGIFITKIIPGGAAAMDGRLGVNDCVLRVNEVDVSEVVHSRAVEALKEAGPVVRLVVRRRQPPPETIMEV

T2: PDZD7_3, Q9H5P4
T2 sequence (Q9H5P4 857-944, limits assumed, looked up): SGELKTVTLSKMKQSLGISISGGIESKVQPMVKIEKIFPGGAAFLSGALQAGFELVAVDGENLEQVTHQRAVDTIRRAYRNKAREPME

T3: LIN7B, Q9HAP6
T3 sequence (Q9HAP6 88-185, limits assumed, looked up): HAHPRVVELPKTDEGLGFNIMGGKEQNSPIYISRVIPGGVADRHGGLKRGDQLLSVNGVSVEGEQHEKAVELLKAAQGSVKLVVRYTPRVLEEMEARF

T4: SHANK1, Q9Y566
T4 sequence (Q9Y566 658-767, limits assumed, looked up): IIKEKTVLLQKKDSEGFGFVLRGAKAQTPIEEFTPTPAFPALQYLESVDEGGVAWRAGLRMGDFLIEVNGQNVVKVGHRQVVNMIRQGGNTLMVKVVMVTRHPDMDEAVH

T5: MPDZ_12, O75970
T5 sequence (O75970 1857-1958, limits assumed, looked up): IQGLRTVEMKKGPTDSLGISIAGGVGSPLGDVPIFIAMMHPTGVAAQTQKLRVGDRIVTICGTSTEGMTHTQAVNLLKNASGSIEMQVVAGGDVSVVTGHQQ

T6: DFNB31_1, Q9P202
T6 sequence (Q9P202 135-233, limits assumed, looked up): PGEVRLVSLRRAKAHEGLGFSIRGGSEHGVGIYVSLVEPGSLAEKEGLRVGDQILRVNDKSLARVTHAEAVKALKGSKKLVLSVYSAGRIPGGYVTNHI

T7: RHPN1, Q8TCX5
T7 sequence (Q8TCX5 508-602, limits assumed, looked up): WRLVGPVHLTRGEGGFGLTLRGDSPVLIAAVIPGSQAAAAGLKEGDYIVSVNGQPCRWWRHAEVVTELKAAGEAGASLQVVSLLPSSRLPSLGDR

T8: ARHGAP21, Q5T5U3
T8 sequence (Q5T5U3 45-169, limits assumed, looked up): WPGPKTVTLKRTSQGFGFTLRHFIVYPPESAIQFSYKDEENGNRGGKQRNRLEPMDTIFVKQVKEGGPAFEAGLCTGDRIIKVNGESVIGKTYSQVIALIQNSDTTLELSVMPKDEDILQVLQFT

T9: TIAM2, Q8IVF5
T9 sequence (Q8IVF5 885-986, limits assumed, looked up): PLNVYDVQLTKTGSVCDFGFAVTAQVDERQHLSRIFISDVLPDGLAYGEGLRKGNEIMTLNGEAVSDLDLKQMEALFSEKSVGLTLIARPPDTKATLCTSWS

T10: DLG3_3, Q92796
T10 sequence (Q92796 374-475, limits assumed, looked up): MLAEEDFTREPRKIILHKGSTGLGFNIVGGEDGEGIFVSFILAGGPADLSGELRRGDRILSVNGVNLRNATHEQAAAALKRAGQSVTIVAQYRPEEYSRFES

T11: MPP7, Q5T2T1
T11 sequence (Q5T2T1 134-230, limits assumed, looked up): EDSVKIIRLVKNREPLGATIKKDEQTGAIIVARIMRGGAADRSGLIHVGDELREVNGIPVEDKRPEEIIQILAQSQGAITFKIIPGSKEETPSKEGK

T12: PDZRN3_1, Q9UPQ7
T12 sequence (Q9UPQ7 244-349, limits assumed, looked up): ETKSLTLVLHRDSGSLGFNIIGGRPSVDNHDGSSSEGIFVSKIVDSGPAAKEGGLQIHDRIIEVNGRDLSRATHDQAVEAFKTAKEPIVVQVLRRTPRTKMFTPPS


Tests used:
Experiment in all cases: holdup assay
Set-up in all cases: key: below the threshold = too weak to quantify, mostly under pKd 3.1 to 4
Settings in all cases: plain residues with an end cap or a label only (N-terminal biotin on a linker: ado-ado)
DLG3_1, Q92796 = target: T1, DLG3_1, Q92796
PDZD7_3, Q9H5P4 = target: T2, PDZD7_3, Q9H5P4
LIN7B, Q9HAP6 = target: T3, LIN7B, Q9HAP6
PTPN3, P26045 = target: PTPN3, P26045
IL16_1, Q14005 = target: IL16_1, Q14005
SHANK1, Q9Y566 = target: T4, SHANK1, Q9Y566
PARD3_3, Q8TEW0 = target: PARD3_3, Q8TEW0
MPDZ_12, O75970 = target: T5, MPDZ_12, O75970
HTRA2, O43464 = target: HTRA2, O43464
DFNB31_1, Q9P202 = target: T6, DFNB31_1, Q9P202
LNX1_1, Q8TBB1 = target: LNX1_1, Q8TBB1
MAGI2_4, Q86UL8 = target: MAGI2_4, Q86UL8
SCRIB_3, Q14160 = target: SCRIB_3, Q14160
SCRIB_2, Q14160 = target: SCRIB_2, Q14160
RHPN1, Q8TCX5 = target: T7, RHPN1, Q8TCX5
ARHGAP21, Q5T5U3 = target: T8, ARHGAP21, Q5T5U3
MAST1, Q9Y2H9 = target: MAST1, Q9Y2H9
TIAM2, Q8IVF5 = target: T9, TIAM2, Q8IVF5
DLG1_1, Q12959 = target: DLG1_1, Q12959
LDB3, O75112 = target: LDB3, O75112
ARHGEF12, Q9NZN5-2 = target: ARHGEF12, Q9NZN5-2
DLG3_3, Q92796 = target: T10, DLG3_3, Q92796
MPP7, Q5T2T1 = target: T11, MPP7, Q5T2T1
PDZRN3_1, Q9UPQ7 = target: T12, PDZRN3_1, Q9UPQ7
GOPC, Q9HD26 = target: GOPC, Q9HD26

Chain of ARHGEF12, Q9NZN5-2 (Q9NZN5 other isoform, or with tags, fused parts or gaps): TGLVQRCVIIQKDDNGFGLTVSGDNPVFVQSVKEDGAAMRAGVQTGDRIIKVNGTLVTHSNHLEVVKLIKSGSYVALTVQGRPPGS
Chain of MAGI2_4, Q86UL8 (Q86UL8 772-865): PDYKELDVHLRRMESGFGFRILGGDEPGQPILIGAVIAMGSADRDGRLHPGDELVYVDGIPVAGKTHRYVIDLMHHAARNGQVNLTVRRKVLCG
Chain of LNX1_1, Q8TBB1 (Q8TBB1 261-371): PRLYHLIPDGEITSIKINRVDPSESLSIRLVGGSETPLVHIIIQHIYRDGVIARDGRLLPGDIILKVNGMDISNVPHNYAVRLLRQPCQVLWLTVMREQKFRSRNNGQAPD
Chain of SCRIB_2, Q14160 (Q14160 857-960): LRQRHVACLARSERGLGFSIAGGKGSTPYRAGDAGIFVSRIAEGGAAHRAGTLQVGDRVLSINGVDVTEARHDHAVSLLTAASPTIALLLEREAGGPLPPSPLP
Chain of LDB3, O75112 (O75112 1-94): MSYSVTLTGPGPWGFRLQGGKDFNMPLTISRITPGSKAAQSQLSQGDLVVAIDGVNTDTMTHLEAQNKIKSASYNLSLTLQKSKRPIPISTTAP
Chain of PTPN3, P26045 (P26045 505-587): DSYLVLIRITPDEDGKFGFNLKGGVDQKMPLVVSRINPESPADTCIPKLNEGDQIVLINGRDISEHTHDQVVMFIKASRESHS
Chain of HTRA2, O43464 (O43464 355-458): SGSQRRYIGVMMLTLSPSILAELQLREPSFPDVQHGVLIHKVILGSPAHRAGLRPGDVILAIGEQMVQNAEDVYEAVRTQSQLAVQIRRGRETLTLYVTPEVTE
Chain of MAST1, Q9Y2H9 (Q9Y2H9 962-1065): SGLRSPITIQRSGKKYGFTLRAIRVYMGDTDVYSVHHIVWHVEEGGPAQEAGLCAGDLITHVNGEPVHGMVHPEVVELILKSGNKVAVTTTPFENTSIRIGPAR
Chain of PARD3_3, Q8TEW0 (Q8TEW0 582-685): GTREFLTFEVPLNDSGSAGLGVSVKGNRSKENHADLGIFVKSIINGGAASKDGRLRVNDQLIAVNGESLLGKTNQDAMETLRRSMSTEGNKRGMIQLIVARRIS
Chain of IL16_1, Q14005 (Q14005 210-306): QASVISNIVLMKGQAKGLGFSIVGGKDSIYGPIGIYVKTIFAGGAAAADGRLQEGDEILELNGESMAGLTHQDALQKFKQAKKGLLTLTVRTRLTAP
Chain of SCRIB_3, Q14160 (Q14160 999-1103): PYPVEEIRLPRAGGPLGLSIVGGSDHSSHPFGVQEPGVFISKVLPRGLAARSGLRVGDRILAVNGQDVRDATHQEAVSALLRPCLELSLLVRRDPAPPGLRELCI

Row | pKd (DLG3_1, Q92796) | pKd (PDZD7_3, Q9H5P4) | pKd (LIN7B, Q9HAP6) | pKd (PTPN3, P26045) | pKd (IL16_1, Q14005) | pKd (SHANK1, Q9Y566) | pKd (PARD3_3, Q8TEW0) | pKd (MPDZ_12, O75970) | pKd (HTRA2, O43464) | pKd (DFNB31_1, Q9P202) | pKd (LNX1_1, Q8TBB1) | pKd (MAGI2_4, Q86UL8) | pKd (SCRIB_3, Q14160) | pKd (SCRIB_2, Q14160) | pKd (RHPN1, Q8TCX5) | pKd (ARHGAP21, Q5T5U3) | pKd (MAST1, Q9Y2H9) | pKd (TIAM2, Q8IVF5) | pKd (DLG1_1, Q12959) | pKd (LDB3, O75112) | Binder | other results
1 | 4.18 | 5.23 | below the threshold | 3.75 | 3.88 | 4.04 | 4.29 | below the threshold | 4.18 | 3.65 | 4.67 | 4.53 | 4.06 | below the threshold | 4.85 | 3.96 | 4.74 | below the threshold | 4.79 | below the threshold | PMESGICTIV [TTC24, A2A3L6] | pKd (ARHGEF12, Q9NZN5-2): 4.47; pKd (DLG3_3, Q92796): below the threshold; pKd (MPP7, Q5T2T1): below the threshold; pKd (PDZRN3_1, Q9UPQ7): 3.48; pKd (GOPC, Q9HD26): 4.4
2 | below the threshold | below the threshold | below the threshold | below the threshold | below the threshold | below the threshold | below the threshold | below the threshold | below the threshold | below the threshold | below the threshold | below the threshold | below the threshold | below the threshold | below the threshold | 4.04 | below the threshold | below the threshold | below the threshold | below the threshold | LETREPTNTL [GRIP1, Q9Y3R0] | pKd (ARHGEF12, Q9NZN5-2): below the threshold; pKd (DLG3_3, Q92796): below the threshold; pKd (MPP7, Q5T2T1): below the threshold; pKd (PDZRN3_1, Q9UPQ7): below the threshold; pKd (GOPC, Q9HD26): below the threshold
3 | below the threshold | below the threshold | 3.62 | 4.13 | below the threshold | below the threshold | below the threshold | below the threshold | below the threshold | 3.65 | below the threshold | below the threshold | below the threshold | below the threshold | below the threshold | 4.03 | below the threshold | below the threshold | below the threshold | below the threshold | RALRASESGI [ADGRE5, P48960] | pKd (ARHGEF12, Q9NZN5-2): below the threshold; pKd (DLG3_3, Q92796): below the threshold; pKd (MPP7, Q5T2T1): below the threshold; pKd (PDZRN3_1, Q9UPQ7): below the threshold; pKd (GOPC, Q9HD26): below the threshold

From paper PMC9482650, “Quantitative fragmentomics allow affinity mapping of interactomes” (Nature Communications, 2022)
